Results published in the nanobody polyreactivity screen of Harvey et al. (2022).

Assay: yeast display, Sf9 membrane polyspecificity reagent, FACS + sequencing; frameworks hold sequencing errors
How it was run: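 Galactose-induced (36–48 hours) yeast carrying a synthetic nanobody display library were exposed to 10% biotinylated, detergent-solubilized Sf9 membrane reagent at 4 °C for 1 hour. FACS followed streptavidin microbead enrichment, using low and high (top ~1%) gates for expression (anti-HA) and reagent binding (streptavidin). Colony PCR, MiSeq 2 × 250 sequencing and CDR-length filtering followed. Labels for polyreactivity reflect the gate of origin.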

Row | Sequence | polyreactivity (PSR sort gate)
1 | QVQLVESGGGLVQAGGSLRLSCAASGFIFRDNAMGWSRQAPGKERELVAAISKSGGRTYYADSVKGRFTISRDNAKNTVYLQMNSLKPEETAVYYCAKASRYWSLYYWGQGSQVTVSS | high polyreactivity
2 | QVQLVESGGGLVQAGGSLRLSCAASGFIFRDNAMGWYRPAPGKERELVAAISKSGGRTYYADSVKGRFTISRDNAKNTVYLQMNSLKPEDTAVYYCAKASRYWSLYYWGQGTQVTVSS | high polyreactivity
3 | QVQLVESGGGLVQAGGSLRLSCAASGFIFRFNAMGWYIQAPGKSRELVAAISWSGSSTYYADSVKGRFTISRDNAKNTVYLQMTSLKPEDTAVYYCATSSLYYTIVKGDFYYWGQGTQVTVSS | high polyreactivity
4 | QVQLVESGGGLVQAGGSLRLSCAASGFIFRFYAMGWYRQAPGKERELVATISKRGGTTYYADSVKGRFTISRDNAKNTVYLQMNSLKPEDTAVYYCAVRLYLEMDYWGQGTQVTVSS | high polyreactivity
5 | QVQLVESGGGLVQAGGSLRLSCAASGFIFRGNAMGWYRQAPGKERELVAAISKSGGRTYYADSVKGRFTISRDNAKNTVYLQMNSLKPEDTAVYYCNVLRLGLGRESDSWGQGTQVTVSS | high polyreactivity
6 | QVQLVESGGGLVQAGGSLRLSCAASGFIFRGNAMGWYRQAPGKERELVAAISKSGGRTYYADSVKGRFTISRDNAKNTVYLQMNSLKPEDTAVYYCNVLRMGLGRESDSWGQGTQVTVSA | high polyreactivity
7 | QVQLVESGGGLVQAGGSLRLSCAASGFIFRGNAMGWYRQAPGKERELVASISRTGDTTYYADSVKGRFTISRDNAKNTVYLQMNSLKPEDTAVYYCARRSRVGYPLDSWGQGTQVTVSS | high polyreactivity
8 | QVQLVESGGGLVQAGGSLRLSCAASGFIFRGYAMGLYRQAPGKERELVAAISKSGGSTYYADSVKGRFTISRDNAKNTVYLQMNSLKPEDTAVYYCATDILIDGFYYDYWGQGTQVTVSS | high polyreactivity
9 | QVQLVESGGGLVQAGGSLRLSCAASGFIFRGYAMGWYRQAPGKERELVAAISRRGGSTYYADSVKGRFTISRDNAKNTVYLQMNSLKPEDTAVYYCNADTTPQGNVRDGYWGQGTQVTVSS | high polyreactivity
10 | QVQLVESGGGLVQAGGSLRLSCAASGFIFRINAMGWYRQAPGKERELVAAISSSGGSTYYADSVKGRFTISRDNAKNTVYLQMNSLKPEDTAVYYCNAVGTGGYSSEYGYWGQGTQVTVSS | high polyreactivity
11 | QVQLVESGGGLVQAGGSLRLSCAASGFIFRKYAMGWYRQAPGKERELVAAITASGGSTYYADSVKGRFTISRDNAKNTVYLQMNSLKPEDTAVYYCATDYHGAERWLKYDYWGQGTQVTVSS | high polyreactivity
12 | QVQLVESGGGLVQAGGSLRLSCAASGFIFRNYAMGWYRQAPGKERELVAGITSSGGRTYYADSVKGRFTISRDNAKNTVYLQMNSLKPEDTAVYYCNIDVLYYRYTSFSNRYYYWGQGTQVTVSS | high polyreactivity
13 | QVQLVESGGGLVQAGGSLRLSCAASGFIFRPYVMGWYRQAPGKERELVAAISRSGSSTYYADSVKGRFTISRDNAKNTVYLQMNSLKPEDTAVYYCARRTSQEFDYWGQGTQVTVSS | high polyreactivity
14 | QVQLVESGGGLVQAGGSLRLSCAASGFIFRQYVMGWYRQAPGKERELVAAISWRTTSTYYADSVKGRFTISRDNAKNTVYLQMNSLKPEDTAVYYCAAPQVWWGYYTRGVDYWGQGTQVTVSS | low polyreactivity
15 | QVQLVESGGGLVQAGGSLRLSCAASGFIFRRNAMGWYRQAPGKERELVAAISTRGGITYYADSVKGRFTISRDNAKNTVYLQMNSLKPDDTAVYYCAVVFVWGWPGYYWGQGTQVTVSS | high polyreactivity
16 | QVQLVESGGGLVQAGGSLRLSCAASGFIFRRNAMGWYRQAPGKERELVASIRSGGSTKYADSVKGRFTISRDNAKNTVYLQMTSLKPEDTAVYYCNADDPGYAVPWYWFKYDYWGQGTQVTVSS | low polyreactivity
17 | QVQLVESGGGLVQAGGSLRLSCAASGFIFRRYAMGWYRQAPGKDRALVAAITIGGSTSYADSVKGRFTISRDNAKKTVYVQMNSLKPEDTAVYYCNAGSFSRKARRYDYWGQGTQVTVSS | high polyreactivity
18 | QVQLVESGGGLVQAGGSLRLSCAASGFIFRRYAMGWYRQAPGKERELVAAIRWDDGNTYYADSVKGRFTISRDNAKNTVYLQMNSLKPEDTAVYYCNADKWSSTDDWLYDYWGQGTQVTVSS | low polyreactivity
19 | QVQLVESGGGLVQAGGSLRLSCAASGFIFRRYAMGWYRQAPGKERELVAAISGSGGRTYYADSVKGRFTISRDNAKNTVYLQMNSLKPEDTAVYYCAADHGSLLYDYWGQGTQVTVSS | high polyreactivity
20 | QVQLVESGGGLVQAGGSLRLSCAASGFIFRRYAMGWYRQAPGKERELVAAISYNVVSTYYADSVKGRFTISRDNAKNTVYLQLNSLKPEVTAVYYCNTASSYRSFRYNYWGQGTQVTVSS | high polyreactivity
21 | QVQLVESGGGLVQAGGSLRLSCAASGFIFRRYAMGWYRQAPGKERELVAGISNRGGRTYYADSVKGRFTISRDNAKNTVYLQMNSLKPEDTAVYYCAADQKSGYRVSRYYVFYDYWGQGTQVTVSS | high polyreactivity
22 | QVQLVESGGGLVQAGGSLRLSCAASGFIFRRYAMGWYRQAPGKERELVAIITSGVRTYSADSVKGRFTISRDNAKNTVYLQMNSLKPEDTAVYYCAARVKDYPEYDYWGQGTQVTVSS | low polyreactivity

Row | Sequence | polyreactivity (PSR sort gate)
23 | QVQLVESGGGLVQAGGSLRLSCAASGFIFRRYVMGWYRQAPGKERELVAAISNGGGRTYYADSVKGRFTISRDNAKNTVYLQMNSLKPEDTAVYYCAAYPRGPLAPDYDYWGQGTQVTVSS | high polyreactivity
24 | QVQLVESGGGLVQAGGSLRLSCAASGFIFRRYVMGWYRQAPGKERELVAAISRGGSTYYADSVKGRFTISRDNAKNTVYLQMNSLKPEDTAVYYCNTPGGFVGDDYDYWGQGTQVTVSS | high polyreactivity
25 | QVQLVESGGGLVQAGGSLRLSCAASGFIFRSYAMGWYRQAPGKERELVAGISYRGGSTYYADSVKGRFTISRDNAKNTVYLQMNSLKPEDTAVYYCAATAWYNWYFGLDYWGQGTQVTVSS | high polyreactivity
26 | QVQLVESGGGLVQAGGSLRLSCAASGFIFRVNALGGSRPAPGKERVLVAARISSSGSTYYADSVKGRFTISRDNAKNTVYLQMNSLKPEDTAVYYCAADPYYLQQFDYWGQGTQVTVSS | low polyreactivity
27 | QVQLVESGGGLVQAGGSLRLSCAASGFIFRVNAMGWYRQAPGKERELVAAISRRGGSTYYADSVKGRFTISRDNAKNTVYLQMNSLKPEDTAVYYCAVKGASYPAYRGYDYWGQGTQVTVSS | high polyreactivity
28 | QVQLVESGGGLVQAGGSLRLSCAASGFIFRVNAMGWYRQAPGKERELVAAISSSGTSTYYADSVKGRFTISRDNAKNTVYLQMNSLKPEDTAVYYCAARLFYRSAYGYWGQGTQVTVSS | high polyreactivity
29 | QVQLVESGGGLVQAGGSLRLSCAASGFIFRVYAMGWYRQAPGKERELVAAISDSGGSTTYADSVKGRFTISRDNAKNTVYLQMNSLKPEDTAVYYCAADYDFFSLYLYDYWGQGTQVTVSS | low polyreactivity
30 | QVQLVESGGGLVQAGGSLRLSCAASGFIFRWYAMGWYRQAPGKERELVASITRGGSTNYADSVKGRFTISRDNAKNTVYLQMNSLKPEDTAVYYCAAGWRRAAGIQYWYGYWGQGTQVTVSS | high polyreactivity
31 | QVQLVESGGGLVQAGGSLRLSCAASGFIFRWYAMGWYRQEPGKERELVAAITWRGGSTYADSVKGRFTISRDNAKNTVYLQMNSLKPEVTAVYYCAAETHRRYDYWGQGTQVTVSS | high polyreactivity
32 | QVQLVESGGGLVQAGGSLRLSCAASGFIFRYNTMGWYRQAPGIVRELVAAISVSGARTYYADSVKGRFTISRDNAKKTVYLQMNSLKPEDTAVYYCNRRYPFYSRYNNDYWGLGTQVTVSS | high polyreactivity
33 | QVQLVESGGGLVQAGGSLRLSCAASGFIFRYNTMGWYRQEPGKERELVAAISKSGGRTYYADSVKGRFTISRDNAMNTVYLQMNSLNPEDTAVYYCAATLSYTGSKRYDYWGQGTQVTVSS | high polyreactivity
34 | QVQLVESGGGLVQAGGSLRLSCAASGFIFRYYAMGWSRQAPGKERELVASINSGGSTYYADSVKGRFTISRDNAKNTVYLQMNSLKPEDTAVYYCAVVLQYDWAYEKSYYWGQGTQVTVSS | low polyreactivity
35 | QVQLVESGGGLVQAGGSLRLSCAASGFIFRYYAMGWSRQAPGKERELVAVISSNGARTSYADSVKGRFTISRDNAKNTVYLQMNSLKPEDTAVYYCNARAWSRFPPVGHDYWGQGTQVTVSS | high polyreactivity
36 | QVQLVESGGGLVQAGGSLRLSCAASGFIFRYYAMGWYRQAPGKERELVAAISRGGSTNYADSVKGRFTISRDNAKNTVYLQMNSLKPEDTAVYYCAARTVRARSKFEYWGQGTQVTVSS | high polyreactivity
37 | QVQLVESGGGLVQAGGSLRLSCAASGFIFRYYAMGWYRQAPGKERELVAAISRSGGRTYYADSVKGRFTISRDNAKNTVYLQMNSLKPEDTAVYYCAARYPVRPDDGYWGQGTQVTVSS | high polyreactivity
38 | QVQLVESGGGLVQAGGSLRLSCAASGFIFRYYAMGWYRQAPGKERELVAAISSGGRTSYADSVKGRFTISRDNAKNTVYLQMNSLKPEDTAVYYCAADRWRGLFYYGNDYWGQGTQVTVSS | high polyreactivity
39 | QVQLVESGGGLVQAGGSLRLSCAASGFIFRYYAMGWYRQAPGKERELVAAISSRAGRTYADSVKGRFTISRDNAKYSVYLQMNSLKPEDTAVYYCAVRSKRKDVGYWGQGTQVTVSS | high polyreactivity
40 | QVQLVESGGGLVQAGGSLRLSCAASGFIFRYYAMGWYRQAPGKERELVAAITSRGSSTYYADSVKGRFTISRDNAKNTVYLQMNSLKPDDTAVYYCAARLRGDYVRYDYWGQGTQVTVSS | high polyreactivity
41 | QVQLVESGGGLVQAGGSLRLSCAASGFIFRYYAMGWYRQAPGKERELVAAITSRGSSTYYADSVKGRFTISRDNAKNTVYLQMNSLKPEDTAVYYCAARSSATRSWIASRPGYRYNYWGQGTQVTVSS | high polyreactivity
42 | QVQLVESGGGLVQAGGSLRLSCAASGFIFRYYAMGWYRQEPGKERELVAAIDYSGGSTNYADSVKGRFTISRDNAKNTVYLQMNSLKPEDTAVYYCNAEYTWHRGYDYWGQGTQVTVSS | low polyreactivity
43 | QVQLVESGGGLVQAGGSLRLSCAASGFIFRYYAMGWYRQEPGKERELVAAISGSGGSKYYADSVKGRFTISRDNAKNNVYLQMNSLKQEDTAVYYFAKSYGSHRKIRTSFGYWGQGTQVTVSS | high polyreactivity
